Experimental data taken from US20190271710A1 (Janssen / Centocor, published 2019).
Values belong to the binder of their own block, whether it stands above or below them.

What was measured:
[1] = target: T1, calibrant peptide pT3xpT82 (N-terminal acetyl; dPEG4 linker between the two segments; two phosphothreonines (pT) in GSRSR(pT)PSLP(pT)PPTREPKKV; C-terminal amide); experiment: Simoa pT3xpT82 sandwich assay, calibrant titrated 30 to 0.041 pg/ml
T1 construct: Molecular weight 4551 g/mol
T1 peptide: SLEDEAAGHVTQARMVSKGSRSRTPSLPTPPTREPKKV
Procedure: (§1) The calibrant peptides were reconstituted to 5 mg/ml in 0.1% phosphoric acid/water, aliquoted to 20 ul and frozen. When ready for use, the calibrant peptide aliquots were thawed and diluted 1:1000 (e.g. 1.5 ul into 1498.5 ul), and the dilutions were diluted […] so that the final concentration of the peptides was 5000 pg/ml. A standard curve with 3× jumps was made, starting at 30 pg/ml.
(§2) Calibrant peptides described in Example 1 were produced. The calibrant peptides contained the core epitopes of pT3 and hT43, or pT3 and pT82 separated by PEG4 linkers, and they were used to generate standard curves. Calibrant peptides were titrated from 30 pg/ml to 0.041 pg/ml in 1:3 jumps in assay buffer and measured with the pT3xhT43 and pT3xpT82 assays. A 4-parameter curve fit data reduction method (4PL, 1/y2 weighted) was used to generate the calibration curve. The lower limit of detection (LLOD) was defined as the calculated calibrant level yielding an AEB equal to the average of the zero calibrator+2.5 standard deviations (SD), including 10% coefficient of variation (CV). With these criteria, the representative data yielded an LLOD of 0.002 pg/ml. The Linear Range of the assay, lower limit of quantification (LLOQ) and upper limit of quantification (ULOQ), was defined as the lowest and highest standard curve points achieving CV<20% and recovery 80-120% of expected. […]

[2] = target: T2, calibrant peptide pT3xhT43 (two phosphothreonines (pT) in GSRSR(pT)PSLP(pT)PPTREPKKV; dPEG4 linkers between the three segments; C-terminal amide); experiment: Simoa pT3xhT43 sandwich assay, calibrant titrated 30 to 0.041 pg/ml
T2 construct: Molecular weight 6893 g/mol
T2 peptide: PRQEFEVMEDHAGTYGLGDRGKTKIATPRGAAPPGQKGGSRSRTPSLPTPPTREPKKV
Procedure: as §1, §2

binding result [1]: binds
B1: pT82 mAb (antibody, V domains shown)
VH: EVKLEESGGGLVQPGGSMKLSCVASGFTFSNYWMNWIRQSPEKGLEWVAQIRLQSDNYATRYAESVKGRFTISRDESKTSVYLQMNNLRTEDTGIYYCTGGTTYWGQGTLVTVSA
VL: DIVMTQSQKFMSTSVGDRVSITCKASQNVGTAVAWYQQKPGQSPKLLIYSASIRYTGVPDRFTGSGSGTDFTLTINYMQSEDLADYFCQQFSSYPYTFGGGTKLEIK
notes: The majority assignment is used

binding result [2]: binds
B2: pT3 mouse monoclonal antibody (antibody, V domains shown)
VH: EVKLVESGGDLVKPGGSLKLSCAASGFTFSSYAMSWVRQNPEKRLEWVASISKGGNTYYPNSVKGRFTISRDNARNILYLQMSSLRSEDTALYYCARGWGDYGWFAYWGQVTLVTVSA
VL: DIKMTQSPSSMYASLGERVTITCKASQDINRYLNWFQQKPGKSPKTLIYRANRLLDGVPSRFSGSGSGQDYSLTISSLDYEDMGIYYCLQYDEFPLTFGDGTKLELK
notes: Parental mouse mAb expressed by a mouse hybridoma; Used on capture beads, and as soluble antibody in spiking experiments; also called pT3 mAb
